# Values quoted from earlier work, collected in article PMC2659627 (Bioconjugate chemistry, 2008).
# DPr = 2,3-diaminopropanoyl
# What was measured:
# GRP-receptors = conditions: read-out: IC50 (binding affinity to GRP-receptors); human PC-3 cell line
# PC-3 cells = conditions: after 90 min incubation with PC-3 cells
Substance,Uptake in normal pancreas,IC50 (GRP-receptors),Internalization (PC-3 cells),Uptake compared to DTPA-BBN[1-14] (PC-3 prostate tumors),Uptake compared to DTPA-BBN[1-14] (CA20948 pancreas tumor)
(DPr)-Ser-Ser-Ser-Gln-Trp-AlaVal-Gly-His-Leu-Met-(NH2) (DPr-SSSQWAVGHLM-NH2; also: Tc/Re tricarbonyl complex on DPr chelator),16 ± 1.3 ID/g,~0.86 nM,80%,,
DTPA-ACMpip-Tha^6-BAla^11-Tha^13-Nle^14-BBN[6-14],,,,1.3 times,two to three times higher
